Results from patent publication US5773001 (American Cyanamid Company, dated 1998).
Where two headings read alike, the source gives them in different places.

Tests used:
CD33 antigen (human) [1] = biological target: CD33 antigen (human) (UniProt P20138)
CD33 antigen (human) [2] = biological target: CD33 antigen (human) (UniProt P20138); test: competition with 125I-labelled native antibody on HEL 92.1.7 cells; IC50 (reference) / IC50 (sample)
CD33 antigen (human) [3] = biological target: CD33 antigen (human) (UniProt P20138); remark: listed apart in the source
CD33 antigen (human) [4] = biological target: CD33 antigen (human) (UniProt P20138); remark: listed apart in the source
CD33 antigen (human) [5] = biological target: CD33 antigen (human) (UniProt P20138); remark: listed apart in the source
CD33 antigen (human) [6] = biological target: CD33 antigen (human) (UniProt P20138); test: competition with 125I-labelled native antibody on HEL 92.1.7 cells; IC50 (reference) / IC50 (sample); remark: listed apart in the source
CD33 antigen (human) [7] = biological target: CD33 antigen (human) (UniProt P20138); remark: listed apart in the source
CD33 antigen (human) [8] = biological target: CD33 antigen (human) (UniProt P20138); remark: listed apart in the source
CD33 antigen (human) [9] = biological target: CD33 antigen (human) (UniProt P20138); remark: listed apart in the source
CD33 antigen (human) [10] = biological target: CD33 antigen (human) (UniProt P20138); remark: listed apart in the source
CD33 antigen (human) [11] = biological target: CD33 antigen (human) (UniProt P20138); remark: listed apart in the source
CD33 antigen (human) [12] = biological target: CD33 antigen (human) (UniProt P20138); remark: listed apart in the source
CD33 antigen (human) [13] = biological target: CD33 antigen (human) (UniProt P20138); remark: listed apart in the source
CD33 antigen (human) [14] = biological target: CD33 antigen (human) (UniProt P20138); remark: listed apart in the source

## Conjugate of 5-acetyl-2-(3-carboxypropoxy)benzoic acid (26), methyl ester condensed with Calicheamicin N-acetyl gamma dimethyl hydrazide and h-P67.6 (antibody)
CD33 antigen (human) [1]
  In vitro IC50 (3H-thymidine incorporation): < 0.005 ng/mL
CD33 antigen (human) [2]
  Rel. Affinity: 0.79

## Conjugate of 5-(4-acetylphenyl)amino!-5-oxopentanoic acid (24) condensed with Calicheamicin N-acetyl gamma dimethyl hydrazide and m-P67.6 (antibody)
CD33 antigen (human) [3]
  In vitro IC50 (3H-thymidine incorporation): < 0.005 ng/mL
CD33 antigen (human) [2]
  Rel. Affinity: 0.73

## Conjugate of 11-(4-acetylphenoxy)undecanoic acid (23) condensed with Calicheamicin N-acetyl gamma dimethyl hydrazide and m-P67.6 (antibody)
CD33 antigen (human) [4]
  In vitro IC50 (3H-thymidine incorporation): 0.47 ng/mL
CD33 antigen (human) [2]
  Rel. Affinity: 1.16

B1: Conjugate of 4-4-(4-fluorobenzoyl)phenoxy!butanoic acid (21) condensed with Calicheamicin N-acetyl gamma dimethyl hydrazide and h-P67.6 (antibody, V domains shown)
VH: EVQLVQSGAEVKKPGSSVKVSCKASGYTITDSNIHWVRQAPGQSLEWIGYIYPYNGGTDYNQKFKNRATLTVDNPTNTAYMELSSLRSEDTDFYYCVNGNPWLAYWGQGTLVTVSS
VL: DIQLTQSPSTLSASVGDRVTITCRASESLDNYGIRFLTWFQQKPGKAPKLLMYAASNQGSGVPSRFSGSGSGTEFTLTISSLQPDDFATYYCQQTKEVPWSFGQGTKVEVKR
modifications: drug-linker amide on lysine side chains, sites not stated; drug-linker amide on lysine side chains, sites not stated
CD33 antigen (human) [5]
  In vitro IC50 (3H-thymidine incorporation): 99 ng/mL
CD33 antigen (human) [6]
  Rel. Affinity: 0.67

B2: Conjugate of 4-(4-acetyl-3-fluorophenoxy)butanoic acid (30) condensed with Calicheamicin N-acetyl gamma dimethyl hydrazide and h-P67.6 (antibody, V domains shown)
VH: B1 VH
VL: B1 VL
modifications: drug-linker amide on lysine side chains, sites not stated; drug-linker amide on lysine side chains, sites not stated
CD33 antigen (human) [7]
  In vitro IC50 (3H-thymidine incorporation): 0.005 ng/mL
CD33 antigen (human) [6]
  Rel. Affinity: 1.01

B3: Conjugate of 4-(2-chloro-4-formylphenoxy)butanoic acid (25) condensed with Calicheamicin N-acetyl gamma dimethyl hydrazide and h-P67.6 (antibody, V domains shown)
VH: B1 VH
VL: B1 VL
modifications: drug-linker amide on lysine side chains, sites not stated; drug-linker amide on lysine side chains, sites not stated
CD33 antigen (human) [8]
  In vitro IC50 (3H-thymidine incorporation): 0.0071 ng/mL
CD33 antigen (human) [6]
  Rel. Affinity: 0.31

B4: Conjugate of 11-(4-acetylphenoxy)undecanoic acid (23) condensed with Calicheamicin N-acetyl gamma dimethyl hydrazide and h-P67.6 (antibody, V domains shown)
VH: B1 VH
VL: B1 VL
modifications: drug-linker amide on lysine side chains, sites not stated; drug-linker amide on lysine side chains, sites not stated
CD33 antigen (human) [9]
  In vitro IC50 (3H-thymidine incorporation): 0.43 ng/mL
CD33 antigen (human) [6]
  Rel. Affinity: 0.8

B5: Conjugate of 4-(4-formyl-2-nitrophenoxy)butanoic acid (27) condensed with Calicheamicin N-acetyl gamma dimethyl hydrazide and h-P67.6 (antibody, V domains shown)
VH: B1 VH
VL: B1 VL
modifications: drug-linker amide on lysine side chains, sites not stated; drug-linker amide on lysine side chains, sites not stated
CD33 antigen (human) [10]
  In vitro IC50 (3H-thymidine incorporation): 0.023 ng/mL
CD33 antigen (human) [6]
  Rel. Affinity: 1.3

B6: Conjugate of 4-2-(4-acetylphenyl)amino!methyl!-6-methoxyphenoxy!butanoic acid (28) condensed with Calicheamicin N-acetyl gamma dimethyl hydrazide and h-P67.6 (antibody, V domains shown)
VH: B1 VH
VL: B1 VL
modifications: drug-linker amide on lysine side chains, sites not stated; drug-linker amide on lysine side chains, sites not stated
CD33 antigen (human) [11]
  In vitro IC50 (3H-thymidine incorporation): < 0.005 ng/mL
CD33 antigen (human) [6]
  Rel. Affinity: 0.85

B7: Conjugate of 4-(4-acetylphenyl)-1-piperazinepentanoic acid (22) condensed with Calicheamicin N-acetyl gamma dimethyl hydrazide and h-P67.6 (antibody, V domains shown)
VH: B1 VH
VL: B1 VL
modifications: drug-linker amide on lysine side chains, sites not stated; drug-linker amide on lysine side chains, sites not stated
CD33 antigen (human) [12]
  In vitro IC50 (3H-thymidine incorporation): 12 ng/mL
CD33 antigen (human) [6]
  Rel. Affinity: 0.98

B8: Conjugate of 4-(2-Acetylphenoxy)butanoic acid (31) condensed with Calicheamicin N-acetyl gamma dimethyl hydrazide and h-P67.6 (antibody, V domains shown)
VH: B1 VH
VL: B1 VL
modifications: drug-linker amide on lysine side chains, sites not stated; drug-linker amide on lysine side chains, sites not stated
CD33 antigen (human) [13]
  In vitro IC50 (3H-thymidine incorporation): < 0.005 ng/mL
CD33 antigen (human) [6]
  Rel. Affinity: 0.95

B9: Conjugate of 4-4-(4-fluorobenzoyl)phenoxy!butanoic acid (21) condensed with Calicheamicin N-acetyl gamma, dimethyl hydrazide and h-P67.6 (antibody, V domains shown)
VH: B1 VH
VL: B1 VL
modifications: drug-linker amide on lysine side chains, sites not stated; drug-linker amide on lysine side chains, sites not stated
CD33 antigen (human) [14]
  In vitro IC50 (3H-thymidine incorporation): 63 ng/mL
CD33 antigen (human) [6]
  Rel. Affinity: 0.76
